Results reported in patent publication WO2011147762A2.

Tests used:
[1] = molecular target: ED-B fibronectin antigen protein (recombinant), bound to CNBr activated sepharose 4B (UniProt P02751); assay: ED-B sepharose column, % of total radioactivity bound; Study B3; thioglycerol 10 mg/mL; day 1
[2] = molecular target: ED-B fibronectin antigen protein (recombinant), bound to CNBr activated sepharose 4B (UniProt P02751); assay: ED-B sepharose column, % of total radioactivity bound; Study B3; no-excipient control (PBS); day 1
[3] = molecular target: ED-B fibronectin antigen protein (recombinant), bound to CNBr activated sepharose 4B (UniProt P02751); assay: ED-B sepharose column, % of total radioactivity bound; Study A; maltose 50 mg/mL; day 5
[4] = molecular target: ED-B fibronectin antigen protein (recombinant), bound to CNBr activated sepharose 4B (UniProt P02751); assay: ED-B sepharose column, % of total radioactivity bound; Study A; sodium thiosulfate 5 mg/mL; day 7
[5] = molecular target: ED-B fibronectin antigen protein (recombinant), bound to CNBr activated sepharose 4B (UniProt P02751); assay: ED-B sepharose column, % of total radioactivity bound; Study A; maltose 25 mg/mL; day 3
[6] = molecular target: ED-B fibronectin antigen protein (recombinant), bound to CNBr activated sepharose 4B (UniProt P02751); assay: ED-B sepharose column, % of total radioactivity bound; Study A; sodium thiosulfate 50 mg/mL; day 5
[7] = molecular target: ED-B fibronectin antigen protein (recombinant), bound to CNBr activated sepharose 4B (UniProt P02751); assay: ED-B sepharose column, % of total radioactivity bound; Study B3; inositol 10 mg/mL; day 7
[8] = molecular target: ED-B fibronectin antigen protein (recombinant), bound to CNBr activated sepharose 4B (UniProt P02751); assay: ED-B sepharose column, % of total radioactivity bound; Study A; maltose 5 mg/mL; day 1
[9] = molecular target: ED-B fibronectin antigen protein (recombinant), bound to CNBr activated sepharose 4B (UniProt P02751); assay: ED-B sepharose column, % of total radioactivity bound; Study A; trolox 5 mg/mL; day 3
[10] = molecular target: ED-B fibronectin antigen protein (recombinant), bound to CNBr activated sepharose 4B (UniProt P02751); assay: ED-B sepharose column, % of total radioactivity bound; Study A; methionine 25 mg/mL; day 7
[11] = molecular target: ED-B fibronectin antigen protein (recombinant), bound to CNBr activated sepharose 4B (UniProt P02751); assay: ED-B sepharose column, % of total radioactivity bound; Study A; sodium thiosulfate 50 mg/mL; day 0
[12] = molecular target: ED-B fibronectin antigen protein (recombinant), bound to CNBr activated sepharose 4B (UniProt P02751); assay: ED-B sepharose column, % of total radioactivity bound; Study A; methionine 25 mg/mL; day 5
[13] = molecular target: ED-B fibronectin antigen protein (recombinant), bound to CNBr activated sepharose 4B (UniProt P02751); assay: ED-B sepharose column, % of total radioactivity bound; Study A; inositol 10 mg/mL; day 5
[14] = molecular target: ED-B fibronectin antigen protein (recombinant), bound to CNBr activated sepharose 4B (UniProt P02751); assay: ED-B sepharose column, % of total radioactivity bound; Study A; maltose 50 mg/mL; day 3
[15] = molecular target: ED-B fibronectin antigen protein (recombinant), bound to CNBr activated sepharose 4B (UniProt P02751); assay: ED-B sepharose column, % of total radioactivity bound; Study A; sodium thiosulfate 10 mg/mL; day 7
[16] = molecular target: ED-B fibronectin antigen protein (recombinant), bound to CNBr activated sepharose 4B (UniProt P02751); assay: ED-B sepharose column, % of total radioactivity bound; Study A; inositol 5 mg/mL; day 7
[17] = molecular target: ED-B fibronectin antigen protein (recombinant), bound to CNBr activated sepharose 4B (UniProt P02751); assay: ED-B sepharose column, % of total radioactivity bound; Study A; sodium thiosulfate 25 mg/mL; day 0
[18] = molecular target: ED-B fibronectin antigen protein (recombinant), bound to CNBr activated sepharose 4B (UniProt P02751); assay: ED-B sepharose column, % of total radioactivity bound; Study A; maltose 5 mg/mL; day 3
[19] = molecular target: ED-B fibronectin antigen protein (recombinant), bound to CNBr activated sepharose 4B (UniProt P02751); assay: ED-B sepharose column, % of total radioactivity bound; Study A; maltose 10 mg/mL; day 7
[20] = molecular target: ED-B fibronectin antigen protein (recombinant), bound to CNBr activated sepharose 4B (UniProt P02751); assay: ED-B sepharose column, % of total radioactivity bound; Study A; methionine 10 mg/mL; day 5
[21] = molecular target: ED-B fibronectin antigen protein (recombinant), bound to CNBr activated sepharose 4B (UniProt P02751); assay: ED-B sepharose column, % of total radioactivity bound; Study A; inositol 25 mg/mL; day 0
[22] = molecular target: ED-B fibronectin antigen protein (recombinant), bound to CNBr activated sepharose 4B (UniProt P02751); assay: ED-B sepharose column, % of total radioactivity bound; Study A; maltose 10 mg/mL; day 0
[23] = molecular target: ED-B fibronectin antigen protein (recombinant), bound to CNBr activated sepharose 4B (UniProt P02751); assay: ED-B sepharose column, % of total radioactivity bound; Study A; inositol 10 mg/mL; day 7
[24] = molecular target: ED-B fibronectin antigen protein (recombinant), bound to CNBr activated sepharose 4B (UniProt P02751); assay: ED-B sepharose column, % of total radioactivity bound; Study A; maltose 25 mg/mL; day 5
[25] = molecular target: ED-B fibronectin antigen protein (recombinant), bound to CNBr activated sepharose 4B (UniProt P02751); assay: ED-B sepharose column, % of total radioactivity bound; Study B3; thioglycerol 10 mg/mL; day 0
[26] = molecular target: ED-B fibronectin antigen protein (recombinant), bound to CNBr activated sepharose 4B (UniProt P02751); assay: ED-B sepharose column, % of total radioactivity bound; Study A; maltose 5 mg/mL; day 0
[27] = molecular target: ED-B fibronectin antigen protein (recombinant), bound to CNBr activated sepharose 4B (UniProt P02751); assay: ED-B sepharose column, % of total radioactivity bound; Study A; methionine 25 mg/mL; day 0
[28] = molecular target: ED-B fibronectin antigen protein (recombinant), bound to CNBr activated sepharose 4B (UniProt P02751); assay: ED-B sepharose column, % of total radioactivity bound; Study B3; ascorbic acid 25 mg/mL; day 3

Chain of UniProt P02751 (P02751 1266-1356 limits assumed): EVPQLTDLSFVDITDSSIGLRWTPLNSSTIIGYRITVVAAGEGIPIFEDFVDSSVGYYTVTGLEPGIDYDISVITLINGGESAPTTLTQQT
Chain of 131I L19-SIP (radioiodinated L19 SIP homodimer) (chain): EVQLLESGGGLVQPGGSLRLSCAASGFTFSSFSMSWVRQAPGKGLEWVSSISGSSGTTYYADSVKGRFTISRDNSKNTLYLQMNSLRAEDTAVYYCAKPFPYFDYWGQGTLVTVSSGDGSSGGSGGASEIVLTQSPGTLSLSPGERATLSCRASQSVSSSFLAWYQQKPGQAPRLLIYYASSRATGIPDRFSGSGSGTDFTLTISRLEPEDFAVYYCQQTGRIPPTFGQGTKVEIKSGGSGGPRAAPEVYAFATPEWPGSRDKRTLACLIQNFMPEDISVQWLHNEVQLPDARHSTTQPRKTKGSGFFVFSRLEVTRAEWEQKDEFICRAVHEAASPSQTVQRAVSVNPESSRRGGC
Chain of 131I L19-SIP (radioiodinated L19 SIP homodimer) (chain): as above

Immunoreactivity (IR) (%) [1]: 60.7%
Immunoreactivity (IR) (%) [2]: 73.2%
Immunoreactivity (%) [3]: 55.6%
Immunoreactivity (%) [4]: 70%
Immunoreactivity (%) [5]: 66%
Immunoreactivity (%) [6]: 91.5%
Immunoreactivity (IR) (%) [7]: 61.9%
Immunoreactivity (%) [8]: 84.4%
Immunoreactivity (%) [9]: 77.6%
Immunoreactivity (%) [10]: 58.9%
Immunoreactivity (%) [11]: 95.8%
Immunoreactivity (%) [12]: 48.6%
Immunoreactivity (%) [13]: 58.9%
Immunoreactivity (%) [14]: 66.2%
Immunoreactivity (%) [15]: 78%
Immunoreactivity (%) [16]: 56.2%
Immunoreactivity (%) [17]: 96.4%
Immunoreactivity (%) [18]: 66.3%
Immunoreactivity (%) [19]: 53.7%
Immunoreactivity (%) [20]: 64.2%
Immunoreactivity (%) [21]: 94.1%
Immunoreactivity (%) [22]: 92.8%
Immunoreactivity (%) [23]: 60.7%
Immunoreactivity (%) [24]: 57.7%
Immunoreactivity (IR) (%) [25]: 80.1%
Immunoreactivity (%) [26]: 89.1%
Immunoreactivity (%) [27]: 97.2%
Immunoreactivity (IR) (%) [28]: 78.7%
Substance: 131I L19-SIP (radioiodinated L19 SIP homodimer)
